This is an account of results in publication PMC2834593, “NMR characterisation of the minimal interacting regions of centrosomal proteins 4.1R and NuMA1: effect of phosphorylation” (BMC Biochemistry, 2010).

The assay has as its target T1, 4.1R-CTD64 (last 64 amino acids of the C-terminal domain of human protein 4.1R) (human, 15N labelled).
T1 construct: protein 4.1R, human, last 64 amino acids (part of the C-terminal domain, CTD); Cloned with NdeI into a modified pET15b with a TEV site; also called 4.1R-CTD64 subdomain; 64 amino acids subdomain
T1 chain: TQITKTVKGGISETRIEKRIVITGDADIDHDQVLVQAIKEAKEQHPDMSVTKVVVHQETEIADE
Kind of assay: NMR titration; 15N labelled 4.1R-CTD64 (0.1 mM, 100 mM Na2HPO4, 90% H2O/10% D2O) titrated with NuMA1 peptide up to 20:1, followed by 1H-15N HSQC, pH 4.9, 25°C; chemical shift perturbation analysis. The note with it: both partners purified.

B1: NuMA1 interacting peptide (N1I), residues 1785-1810 of NuMA1 (peptide)
peptide: Ac-DSGRKTRSARRRTTQIINITMTKKLD-NH2
notes: also called NI1; non-phosphorylated NuMA peptide; source: synthetic peptide, bought: Caslo (Denmark)
Regarding B1, the binding result is “binds”.
